Experimental data reported in the supplement of paper PMC10065799, “High-throughput profiling of sequence recognition by tyrosine kinases and SH2 domains using bacterial peptide display” (eLife, 2023).

Test system: c-Src
Experiment: phosphorylation enrichment, bacterial display (enrichment ratio); higher = better substrate or ligand; peptides without Tyr show the background
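Throughout, for SH2 binding enrichment of the phosphorylated peptide, bacterial display: peptide library displayed on the E. coli surface as eCPX fusions, selected cells deep-sequenced, score is each peptide's frequency after selection divided by its frequency in the input.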
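Throughout, for phosphorylation enrichment, bacterial display: 11-residue human phosphosite peptides and single-mutation variants displayed on the E. coli surface, counted by deep sequencing, each peptide's frequency after selection divided by its frequency in the unselected input library; frequency after pTyr selection over input frequency; kinase dosed for 20-30% of maximal phosphorylation in three min.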

Row | Sequence | phosphorylation enrichment
1 | GKMSQYLESMQ [CYB5R3_Y130] | 0.517
2 | QWRTKYETDTI [MYH7_Y1375_A1379T] | 0.56
3 | KILAKYLLETS [NAMPT_Y175] | 0.395
4 | IVRSRYEDLED [VHL_Y185_L184R] | 0.585
5 | DRLTVYIDRVR [LMNA_Y45_A43T] | 0.324
6 | CHKRTYKVTGL | 0.455
7 | ENFSEYQEIAV [HEMGN_Y150] | 0.616
8 | DRLASYPEKVR [KRT13_Y118_L119P] | 0.331
9 | AVLSLYASGCT [ACTA2_Y145_R149C] | 0.46
10 | NLNGKYFKPRA [ANGPTL3_Y417_N418Y_YF] | 0.43
11 | GDFSRYDEGSG [RECQL5_Y484] | 0.534
12 | AHEALYLEADL [CENPF_Y1920_E1915A] | 0.855
13 | EVASVYESYQP [MAVS_Y92_Q93E] | 5.67
14 | RFVTRSIFNRE [HLA-DQB1_Y62_Y62S_YF] | 0.578
15 | SVTCTHSPALN [TP53_Y126_Y126H] | 0.459
16 | PLFSKYWPNHI [GREB1L_Y1560_R1558S_YF] | 1.38
17 | LLKAKYELLNA [POLR3A_Y714] | 0.405

Row | Sequence | phosphorylation enrichment
18 | SNMPTYSGHFS [GRIN2A_Y1224_T1229S] | 2.61
19 | TTSQLYDAMPI [PDPK1_Y9_V12M] | 3.9
20 | GIVEDYRPPFY [ACVRL1_Y421] | 0.434
21 | QRKRAYVEIEY [MAK16_Y282] | 0.68
22 | SGLDSYVRSLP [TRAPPC1_Y133_R129G] | 0.359
23 | VDDEIYYFRKP [PBRM1_Y1289] | 6.81
24 | PLLEFYWDIFT [CDAN1_Y713_R714W_YF] | 0.412
25 | PVDVAYRRGYF [PLEC_Y2967] | 0.361
26 | THEVRYVSAGQ [SLCO4A1_Y77] | 0.366
27 | SDPIVYTLENI [EMR1_Y534_I533V] | 4.06
28 | KFRREYILSLE [GPC3_Y299_W296R_YF] | 0.5
29 | EICTQYEAMAS [GFAP_Y242_R239C] | 0.601
30 | EFTAGYNVKFD [GPX4_Y123_A120T] | 0.44
31 | SSYDTYHLSRE [KIR3DL2_Y253_I252T] | 3.69
32 | SIGLGYHKDLQ [NF1_Y1169] | 0.458
33 | FSCLPYRRLAY [SLC52A2_Y305_G306R] | 0.766

Molecular target: Grb2 SH2 (UniProt P62993)
Experiment: SH2 binding enrichment of the phosphorylated peptide, bacterial display (enrichment ratio); higher = better substrate or ligand; peptides without Tyr show the background

Chain of Grb2 SH2 (P62993 whole entry, looked up): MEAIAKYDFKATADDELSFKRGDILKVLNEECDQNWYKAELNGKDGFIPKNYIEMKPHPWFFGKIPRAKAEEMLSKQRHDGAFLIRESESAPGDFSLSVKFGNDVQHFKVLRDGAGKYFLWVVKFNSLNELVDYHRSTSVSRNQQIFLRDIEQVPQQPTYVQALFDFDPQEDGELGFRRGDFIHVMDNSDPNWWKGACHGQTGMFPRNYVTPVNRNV

Row | Sequence | SH2 binding enrichment
34 | GKMSQYLESMQ [CYB5R3_Y130] | 0.657
35 | QWRTKYETDTI [MYH7_Y1375_A1379T] | 0.769
36 | KILAKYLLETS [NAMPT_Y175] | 0.766
37 | IVRSRYEDLED [VHL_Y185_L184R] | 0.897
38 | DRLTVYIDRVR [LMNA_Y45_A43T] | 0.953
39 | CHKRTYKVTGL | 1.13
40 | ENFSEYQEIAV [HEMGN_Y150] | 0.98
41 | DRLASYPEKVR [KRT13_Y118_L119P] | 0.845
42 | AVLSLYASGCT [ACTA2_Y145_R149C] | 0.861
43 | NLNGKYFKPRA [ANGPTL3_Y417_N418Y_YF] | 1.21
44 | GDFSRYDEGSG [RECQL5_Y484] | 0.737
45 | AHEALYLEADL [CENPF_Y1920_E1915A] | 0.577
46 | EVASVYESYQP [MAVS_Y92_Q93E] | 0.919
47 | RFVTRSIFNRE [HLA-DQB1_Y62_Y62S_YF] | 0.72
48 | SVTCTHSPALN [TP53_Y126_Y126H] | 0.742
49 | PLFSKYWPNHI [GREB1L_Y1560_R1558S_YF] | 0.917
50 | LLKAKYELLNA [POLR3A_Y714] | 0.964

Row | Sequence | SH2 binding enrichment
51 | SNMPTYSGHFS [GRIN2A_Y1224_T1229S] | 0.898
52 | TTSQLYDAMPI [PDPK1_Y9_V12M] | 0.854
53 | GIVEDYRPPFY [ACVRL1_Y421] | 0.731
54 | QRKRAYVEIEY [MAK16_Y282] | 0.675
55 | SGLDSYVRSLP [TRAPPC1_Y133_R129G] | 0.799
56 | VDDEIYYFRKP [PBRM1_Y1289] | 0.994
57 | PLLEFYWDIFT [CDAN1_Y713_R714W_YF] | 0.926
58 | PVDVAYRRGYF [PLEC_Y2967] | 0.876
59 | THEVRYVSAGQ [SLCO4A1_Y77] | 0.771
60 | SDPIVYTLENI [EMR1_Y534_I533V] | 0.768
61 | KFRREYILSLE [GPC3_Y299_W296R_YF] | 0.86
62 | EICTQYEAMAS [GFAP_Y242_R239C] | 0.989
63 | EFTAGYNVKFD [GPX4_Y123_A120T] | 0.881
64 | SSYDTYHLSRE [KIR3DL2_Y253_I252T] | 0.685
65 | SIGLGYHKDLQ [NF1_Y1169] | 0.776
66 | FSCLPYRRLAY [SLC52A2_Y305_G306R] | 0.942

Molecular target: SHP2-C SH2
Experiment: as above

Row | Sequence | SH2 binding enrichment
67 | GKMSQYLESMQ [CYB5R3_Y130] | 0.715
68 | QWRTKYETDTI [MYH7_Y1375_A1379T] | 0.735
69 | KILAKYLLETS [NAMPT_Y175] | 0.614
70 | IVRSRYEDLED [VHL_Y185_L184R] | 0.602
71 | DRLTVYIDRVR [LMNA_Y45_A43T] | 0.919
72 | CHKRTYKVTGL | 0.898
73 | ENFSEYQEIAV [HEMGN_Y150] | 0.663
74 | DRLASYPEKVR [KRT13_Y118_L119P] | 0.636
75 | AVLSLYASGCT [ACTA2_Y145_R149C] | 0.547
76 | NLNGKYFKPRA [ANGPTL3_Y417_N418Y_YF] | 1.16
77 | GDFSRYDEGSG [RECQL5_Y484] | 0.664
78 | AHEALYLEADL [CENPF_Y1920_E1915A] | 0.386
79 | EVASVYESYQP [MAVS_Y92_Q93E] | 0.504
80 | RFVTRSIFNRE [HLA-DQB1_Y62_Y62S_YF] | 0.588
81 | SVTCTHSPALN [TP53_Y126_Y126H] | 0.389
82 | PLFSKYWPNHI [GREB1L_Y1560_R1558S_YF] | 0.736
83 | LLKAKYELLNA [POLR3A_Y714] | 0.444

Row | Sequence | SH2 binding enrichment
84 | SNMPTYSGHFS [GRIN2A_Y1224_T1229S] | 0.643
85 | TTSQLYDAMPI [PDPK1_Y9_V12M] | 0.417
86 | GIVEDYRPPFY [ACVRL1_Y421] | 0.813
87 | QRKRAYVEIEY [MAK16_Y282] | 0.718
88 | SGLDSYVRSLP [TRAPPC1_Y133_R129G] | 0.74
89 | VDDEIYYFRKP [PBRM1_Y1289] | 0.57
90 | PLLEFYWDIFT [CDAN1_Y713_R714W_YF] | 0.719
91 | PVDVAYRRGYF [PLEC_Y2967] | 0.519
92 | THEVRYVSAGQ [SLCO4A1_Y77] | 0.927
93 | SDPIVYTLENI [EMR1_Y534_I533V] | 0.709
94 | KFRREYILSLE [GPC3_Y299_W296R_YF] | 0.708
95 | EICTQYEAMAS [GFAP_Y242_R239C] | 0.804
96 | EFTAGYNVKFD [GPX4_Y123_A120T] | 0.605
97 | SSYDTYHLSRE [KIR3DL2_Y253_I252T] | 0.529
98 | SIGLGYHKDLQ [NF1_Y1169] | 0.639
99 | FSCLPYRRLAY [SLC52A2_Y305_G306R] | 0.653

Molecular target: c-Src SH2
Experiment: as above

Row | Sequence | SH2 binding enrichment
100 | GKMSQYLESMQ [CYB5R3_Y130] | 0.415
101 | QWRTKYETDTI [MYH7_Y1375_A1379T] | 0.485
102 | KILAKYLLETS [NAMPT_Y175] | 0.513
103 | IVRSRYEDLED [VHL_Y185_L184R] | 0.413
104 | DRLTVYIDRVR [LMNA_Y45_A43T] | 0.636
105 | CHKRTYKVTGL | 1.07
106 | ENFSEYQEIAV [HEMGN_Y150] | 0.627
107 | DRLASYPEKVR [KRT13_Y118_L119P] | 0.511
108 | AVLSLYASGCT [ACTA2_Y145_R149C] | 0.379
109 | NLNGKYFKPRA [ANGPTL3_Y417_N418Y_YF] | 0.961
110 | GDFSRYDEGSG [RECQL5_Y484] | 0.562
111 | AHEALYLEADL [CENPF_Y1920_E1915A] | 0.399
112 | EVASVYESYQP [MAVS_Y92_Q93E] | 0.727
113 | RFVTRSIFNRE [HLA-DQB1_Y62_Y62S_YF] | 0.39
114 | SVTCTHSPALN [TP53_Y126_Y126H] | 0.444
115 | PLFSKYWPNHI [GREB1L_Y1560_R1558S_YF] | 0.459
116 | LLKAKYELLNA [POLR3A_Y714] | 1.95

Row | Sequence | SH2 binding enrichment
117 | SNMPTYSGHFS [GRIN2A_Y1224_T1229S] | 0.491
118 | TTSQLYDAMPI [PDPK1_Y9_V12M] | 0.712
119 | GIVEDYRPPFY [ACVRL1_Y421] | 0.466
120 | QRKRAYVEIEY [MAK16_Y282] | 4.61
121 | SGLDSYVRSLP [TRAPPC1_Y133_R129G] | 0.492
122 | VDDEIYYFRKP [PBRM1_Y1289] | 0.521
123 | PLLEFYWDIFT [CDAN1_Y713_R714W_YF] | 0.527
124 | PVDVAYRRGYF [PLEC_Y2967] | 0.456
125 | THEVRYVSAGQ [SLCO4A1_Y77] | 0.495
126 | SDPIVYTLENI [EMR1_Y534_I533V] | 0.563
127 | KFRREYILSLE [GPC3_Y299_W296R_YF] | 0.594
128 | EICTQYEAMAS [GFAP_Y242_R239C] | 2.84
129 | EFTAGYNVKFD [GPX4_Y123_A120T] | 0.468
130 | SSYDTYHLSRE [KIR3DL2_Y253_I252T] | 0.632
131 | SIGLGYHKDLQ [NF1_Y1169] | 0.423
132 | FSCLPYRRLAY [SLC52A2_Y305_G306R] | 0.448
